# Molecular target: PPxY-containing peptide
# Experiment: isothermal titration calorimetry, ratio of equilibrium dissociation constants (mutant vs wild-type Nedd4.3 WW domain)
substance,measurement,value
Nedd4.3 WW domain L3A mutant (from UniProt Q62940 459-492),fold effect on peptide binding relative to wild-type,5.15 fold

# From patent US20070212700A1, “Methods of using and analyzing biological sequence data” (THE BOARD OF REGENTS OF THE UNIVERSITY OF TEXAS SYSTEM, priority 2005, published 2007)
